The source of these data is the domain aggregation screens of Martell et al. (2025).
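Further: 20 min heating vs room temperature control held 20 min.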

The nature of the series: soluble fraction after stress (log2 fold change); higher = more stays soluble; pooled small domains, quantitative proteomics. As to conditions: stress: 75 degC.
As for “HMVQISNTDDLYPIVQRIVDANPQSVEDYKNGKAKALGFLVGQMMKETKGKANPSMVNDLIIKAIEE”, the “soluble fraction (log2)” value is -0.022.

“HMVQIVINKEVQTTSQTILRENAGTSSRNIGYVDPNVKLRATLDRNSFYFIPEKKGWIMKSRVKLIEDLS”: the “soluble fraction (log2)” value is -3.77.

“HMVQMNMLELQEEMQRDRSWIIKHLFQDEYFRRKIAKFSQFPINDSGKYLFHRKSMLKFLNDYAEEIVER”: the “soluble fraction (log2)” value is -2.88. For “HMVQPSAAVRAHPVGAFVEQRQGLSDDQILALQKKWNEGIYARIQGTRWFLFSKDTPAVTSLLLVPDLP”, the “soluble fraction (log2)” value was -0.47. Consider “HMVQVHEWTNKAGRTIKAKFVRGDAQSVTIFLGGRNFVLKIADLSEESQALARKLSAPPPPP”, for which the “soluble fraction (log2)” value is -2.52. Regarding “HMVQVPSLVGISEIEAKTLLTQAGFFVKIVEVFDANQPVGIVLAQAPSAGESRIIGSPVTITVNKAQ”, the “soluble fraction (log2)” value is -2.41. The same measure for “HMVQVRQPAGAGDLFAKGRLHLSTGTIHTVKPLEVDLPKGRLTVVTGVSGSGKTTLILESLLPALAAAAA”: 0.377; for “HMVRSLESESVYDRQRAYEIAYQLRTEERPYSFIATQLNKAGLRPQKAARYEWYSVQELLRSA”: -1.38; for “HMVSDISTQYQKIINEALDKQPEVKLADIVTMIKEQTSNKVQNGIVENVAKQMNGIEIIKIGQAKGVRRTT”: 0.0482.

Consider “HMVSDTGAIEAIVAQVLADNPKLVEGYLATPEDKRGKAIGPFIGLTRKAAAGVNPQVVMDVLKKKLSEL”, for which the “soluble fraction (log2)” value is -0.27. The same measure for “HMVSEASELTDTINKIGSLAQALVGANKLSKTDLVGIIKKYHTSANYNSITDIGVAKNILAELEAKN”: 0.13; for “HMVSFSIDEALVSAVKGPRSANVMSIQRQFLVRLSVERDGRVTITGANSKSVQQAREAVEAAVEEAKLHP”: -2.96. For “HMVSGVMAQQAIAVLVQQEDKHAPLSDQALAERLQVQGIDISRRTVAKYRQLLQIPSAATRR”, the “soluble fraction (log2)” value was -0.669.

For “HMVSIGSQVAKRRRELRLTQQNLAEKMGVSFQAISSWEREEFLPDINKLQKLAAILNTKISYLLEE”, the “soluble fraction (log2)” value is -1.33. Consider “HMVSINETAFIQIKNSSATEIKEKITALKLDELKNVTITADIRTNKLIVVGPKATINKIQELVIELDTES”, for which the “soluble fraction (log2)” value was -0.174. Turning to “HMVSKTEAMAVFIADKLQEGMVPANEILELYKGMQLSDRTIRNAKKQLGIVSIRKDGQWYWSL”, the “soluble fraction (log2)” value was -1.05. The same measure for “HMVSLPSPLAGKVVSLTVQAGQEVKEGDEIMVLEAMKMNTQVHAPSSGRILALRVQPGDQVEEGQTLVTMG”: 0.14. Take “HMVSLSNQVFEKIEYDILSGKYKIGEIISEKRLSSELGVSRTPIREALGRLSEEGLVGDSPSGTVVLGI”: the “soluble fraction (log2)” value is -0.368. The result for “HMVSRVTTPGVVGKTWQETKQILKQADLTVGSLTRDGKDVTPADGDLVTAQNPSAGQAIVRGSSVDLTFDK” reads 0.0104.

With “HMVSSYTMAIQINGKLRATHDFSVDTSQEDIKKIIINLPAIQKYINGVEIKKFIIVPQKIVNIV”, the “soluble fraction (log2)” value is -2.73. The same measure for “HMVSTEDEISDKLLLDFALEKLSENEKQIVKLRYYNSLTQSKTAEILNMTQVQVSRSEKKILAKLRGII”: -0.0838. As to “HMVSTGIMVVDGRGSVLQHNEAALRQLGVEVLTFESQVKEKLASEDFSVRETTAMLNGKKVRIIAFSDIR”, the “soluble fraction (log2)” value is -2.44.

Take “HMVSVEELLSSLDPNEATVLKLLAERSSGVDELMERSGLDFSALSEAITNLELFGYIAREMDGVYSFS”: the “soluble fraction (log2)” value is -1.05. The same measure for “HMVSVPDIGEKLPDFTGTPKRLLTPLLNKNDVNIIIKGDGWVVSQKPPAGTPVTKGMTIEFTL”: -0.525. The result for “HMVTDSGEIEKLVDEVIDNNPDQVQQFREGKQQVLSYLVGQAMKLSRGKANPNQVNQFLRDKL” reads 0.433. The same measure for “HMVTDTGEIEAIIDRVISENPDSVSDFKNGKERALKFLMGQAMKESKGKANPQIVNELLLKKL”: -0.00511; for “HMVTDVDELEKLIQKVLDSNSSQVDEYRQGKEKVFGFFVGAVMKLTKGQADPDVVNQLLKEKLSGRK”: -0.177. In the case of “HMVTDVDYSTFLSQVEEGKVESVTIEDGEILFKGKDENGEARWYITGEMNDPNLVERLKDKVPSFNAPA”, the “soluble fraction (log2)” value turned out to be 0.194.

Turning to “HMVTIYQRIMLVLEDKQVSVNALSKLVDMSQTTLNTQLKGERTLSANVVAKVLVAYPDVSAEWLMRGVGTM”, the “soluble fraction (log2)” value is -0.96. On to “HMVTLYDGFLSELRKRIPRGAELTNTLVDMLYIEREAVYRRLRGEVPFTFIEVMTVSKELGISLDNLAQA”, for which the “soluble fraction (log2)” value is -1.38. The same measure for “HMVTTADIILEFYSRNPNATLTQAAQHVARATGTTYSRQAISAQLKRLEVAGLVERNGHVTV”: -0.226; for “HMVTTLLIINVAGKVKNPGVYQLPPGSRVVDALEAAGQQLKGVDISDINLARVLVDGEQILIGSN”: -2.5; for “HMVTVQEGETLSAIAARSGVSVKDLVRANEIRNPDSIQEGQVLFVP”: 0.115.

With “HMVVADFQNYTVKPKENLYSLTKTSGLSQEELVALNPELKNGVQEGMVIKLPAAVKLMAQPE”, the “soluble fraction (log2)” value was 0.201. The same measure for “HMVVLPGEVLRINVIQEGKEHGQGVGYMDDGTMVVIENGREFIGEYMEVNVTKVLQTAAGRMIFGRVD”: -2.31; for “HMVVLPPTEDAPEWAQVFDRLGRPESADGYKLPVPEGADPAFAKLASAKMHELGLSAKQGAALAAWWNEQA”: 0.0475; for “HMVVMEIGANGSEVVKLQKRLNQLGYYTEHASGVYDVKTASAVNEFQRQNELNATGKADYTTLDMIYNQ”: -0.00159. The result for “HMVVRRLPFGFSKRFGVLVVPGTSNPVELLYREDASMQSLLEARRVVAQPVAFKKTDVESFNAQLARAHEN” reads -1.66; that for “HMVVSDSAEIDKIVQDVIAANPKAIEDFKSGKTNVTGWLMGQVMKLSHGKANPKQATEILNKYLSK”, 0.513; that for “HMVVTRVKAIDVVNIRKSDSETADKLGKAAVGDEFDLLEKKGNGWSKISYEGGEAYIKSEFLEPSE”, 0.602. The same measure for “HMVVVMEKNASSAEIEQVQERLRQAGFKIHLSQGVERTIIGAIGDRSQVDLGFLEALPGVEKVVPIMK”: 0.171. Turning to “HMVVYFGGPVMLERGIVLHTPDISTKGTINVSDDFALTAHKEILDNINKDTSSLQFKLAIGH”, the “soluble fraction (log2)” value was -0.616.

As to “HMVWINIRDLSDLFSKSGKSENSKNILDLQTLKIEKLLGGGQINTPYTIKVKQATPSAIEKVKQAGGEVIL”, the “soluble fraction (log2)” value was -0.104. Regarding “HMVWPETEAIVTEDFIGKKRSEVQQEGVIFEFFGEGDMVIDQLPRGGVTLNESGRVWIYLGEDTF”, the “soluble fraction (log2)” value was -0.78. For “HMVYFAKNIRHLRRLRGMSQELLAAELDITRARLGAYEESRSEPPLHLLIKISEFFKLPVDIIVKNDLTKS”, the “soluble fraction (log2)” value was -4.88. Take “HMVYFDDEELDRFAGRAADSYTSDETDEFRDVMLTLLPADVMPWTQSIEMRGILLPEQLRDELLML”: the “soluble fraction (log2)” value is -0.391. The same measure for “HMVYVPTKAEVSQQFQDASKARFDERYAIVELADGRRTMAPLAFLTKADHAWLKQLASTSPLPKGK”: -0.16. The same measure for “HMWAQSVSLHGLLGRQALLIVDGKPPRAVAPGQTHLGVTVLSTDEDRAVVALAGGQRLTLRVGESPVSVG”: -1.51. The same measure for “HMWMEKEELLWNDIIRGGVERGELREDTDIQEAAALFRQVFIGLAYQMSFSDGLDVGILRKRFHHIYGLLT”: -0.173. For the sequence “HMWNKGETKIPTQAQNELIKRRQAGATWTSLSEWLKATYGIDIHRTNIQRWYDKEVYLDQEN”, the “soluble fraction (log2)” value is -0.531.

With “HMWNPVLVVRGDFPKDLATTLLKMIFAQKEALNPHILFQNLLRTDNITFRESYPYHSASKTMFRF”, the “soluble fraction (log2)” value was -0.276.

With “HMWPQIAGFADRFGLSDTERRIVTLMSHGRSRKIIASTLGYSQNTIRNYTRNIYAKAGVHSKQELLDLLDP”, the “soluble fraction (log2)” value was -1.96.

For the sequence “HMWPTPRTWSALMNELNLYKENHGYANIVDIPSEKIRRMADGIIGEDMAVRYVAFLQSHASS”, the “soluble fraction (log2)” value is -1.7. On to “HMWQKGEPAITGLKRISKPGLRIYSKNDELPIVYGNRGIAVISTNKGVMTGIEAKRSGVGGEVLFYV”, for which the “soluble fraction (log2)” value is -0.112. Consider “HMWSAREQVVNSLREAILTSELKAGERLVLSDLSARLGVSVTPIREALQSLEREGLVQLMPHQEAVVV”, for which the “soluble fraction (log2)” value was found to be 0.18. The same measure for “HMWVETITTKAGITKYKFQERYTDTYSGKTKRVSVTYTSNSRQAYKLAQAELQKKIDLATNTD”: -0.638. In the case of “HMYAHLGKNLEVVINKALAQEDPEKKAGFAHHIAYYMKLAYSNWHKELVHDDAIRSELDTITGGELEFSN”, the “soluble fraction (log2)” value is 0.609. The result for “HMYAHTPEMEAMNELGLEPPVTLDEIKKTYKTLVKKYHPDHNKEDPEAEEKLKKVNMAYTILKVAYTEFEK” reads -0.246; that for “HMYALGIPVSQYRRTTQVLGHESSYPIAYEDEKQDDDFYLFKFPNIDEYDFKKIVILLKQNGITT”, -2.11; that for “HMYDNTVTKYVNSLSVYVRKGPSTSDEIVTSLIKDTDVTVVGENGEWYKIKYKEFEGYIYKNLLSDNKT”, -1.91. The result for “HMYDRIKLLKLREKRGLTQYELAEKAGISVVTLNKIETSDMAKPFASTLKKIALALGVGIEELS” reads -2.2; that for “HMYEDGGAFLKAEREKYGLTLTDIYEHTHIPVRKLKAYEMHEEEMPDRTRALLELYFDQVAYEYES”, -0.734.

Take “HMYEDIDSAYRILEINSTVSNQEIKNAYRRMAKKYHPDKVAHLGVEHQKGAEEKFKKVQEAYILIKKRRG”: the “soluble fraction (log2)” value was -0.918. For “HMYEENFSKIKNDISTIFKRHKISFTNNFISHLSSVFNTDSLTNKMELEKLDSFLINNKKVTENELLKFII”, the “soluble fraction (log2)” value was -0.0789. Turning to “HMYEINEIIRERRLKKGLTQAQVAKYLGVSAPAVNKWEKGTTYPDLVLLPALARLLDTDLTTLLSF”, the “soluble fraction (log2)” value is -1.46. The result for “HMYEVVPNMRGLTYNQATAALAAAGLKVELSDSIYDEHTQPGTVLDQSPRPNTKVKPNRVVYLTVNAF” reads -1.1; that for “HMYFDDEELDTYKGRASNAYSPDETAQFEEVMTTMRPDEVAAWLRSLQLRGINLPDELKDEAIMLVE”, -0.0968. For “HMYFGNSLFQARKRSGLSQEGVAEKLGVSRQTVSKWETGETVPDIYQSKKMARLYGVSLDEL”, the “soluble fraction (log2)” value was 0.206. In the case of “HMYFNTADLKADSIHYGSTEQSVIKILGEPEYRETFVDNNVSYELFSYKGNLLLSFVENSLVSL”, the “soluble fraction (log2)” value came to 0.147. Consider “HMYGTERILAQLANYGIPNKLAFQIQDFYKEETLQIVEQQPYRLVEDIQGMGFKIADQLAEELGI”, for which the “soluble fraction (log2)” value was -0.307.
